# Key:
# CD8+ T-cells [1] = assay: Intracellular cytokine staining after re-stimulation with mutant or wild-type HERC1 peptide; assay type: cell-based, human; details: PBLs from day 63 and 297 expanded with mutant peptide, re-stimulated
# Method: HERC1 P>S mutant and wild type peptides of 9 amino acids in length (Mutant: […] (SEQ ID NO: 344), Wild type: […] (SEQ ID NO: 5925)) were synthesized (GenScript Piscataway, N.J.). 1.5×10^6 patient PBMCs were cultured with 1.5×10^6 autologous PBMCs pulsed with HERC1 P>S mutant peptide in RPMI media containing 10% pooled human serum (PHS), 10 mM HEPES, 2 mM L Glutamine, and 50 μM β-mercaptoethanol supplemented with IL-15 (10 ng/ml) and IL-2 (10 IU/ml), using methods previously described (59). […] Cells were then treated with 1× Brefeldin A and monensin (BioLegend) for 4 hours, and subsequently stained with 1 μL Alexa Fluor 405-CD3 (Invitrogen), 3 μL APC-H7-CD8 (BD Bioscience), and 1 μL ECD-CD4 (Beckman Coulter). Upon subsequent washing and permeabilization, the cells were stained with the following antibodies to intracellular cytokines: 3 μL Alexa Fluor 647-IFN-γ (Biolegend), 3 μL PE-MIP-1β, and 1 μL PE-Cy7-TNF-α (BD Pharmingen). Data were acquired by flow cytometry (using CYAN flow cytometer, Summit software, Dako Cytomation California Inc., Carpinteria, Calif.). Analysis was done by FlowJo version 10.1, TreeStar, Inc. CD3+ single cell lymphocytes were gated for analysis (SS vs. FS [low, mid], FS vs. Pulse Width [all, low], and CD3 vs. “dump” channel [high, low]).
# [2] = test system: stage IV non-small cell lung cancer (NSCLC) patients; assay: Clinical efficacy of pembrolizumab in NSCLC patients (protocol NCT01295827), by tumor genomic subgroup; assay type: in vivo, human; details: for ORR: all 34
# Method: All patients had stage IV non-small cell lung cancer (NSCLC) and were treated at Memorial Sloan Kettering Cancer Center (n=29) or the University of California at Los Angeles (n=5) on protocol NCT01295827 (FIG. 17). All patients initiated therapy in 2012-2013 and were treated at 10 mg/kg every 2-3 weeks, except for 5 patients treated at 2 mg/kg every 3 weeks. The overall response rate and progression-free survival are reported to be similar across dose and schedules (6). All patients had consented to Institutional Review Board-approved protocols permitting tissue collection and sequencing. PD-L1 expression was assessed prospectively by immunohistochemistry using a previously validated murine anti-human anti-PD-L1 antibody (clone 22C3, Merck & Co., Inc.). Membranous expression of PD-L1 on tumor cells and infiltrating immune cells were scored. 31 (91%) scored at least 1% positive for PD-L1 expression; 2 patients were PD-L1 negative; and 1 was unknown. Smoking status was evaluated using previously completed self-reported smoking questionnaires executed as standard of care at MSKCC or review of medical records at UCLA.
# Per protocol, CT scans were performed every nine weeks. Partial and complete responses were confirmed by a repeat imaging occurring at least 4 weeks after the initial identification of response; unconfirmed responses were considered stable or progressive disease dependent on results of the second CT scan. Durable clinical benefit (DCB) was defined as stable disease or partial response lasting longer than 6 months (week 27, the time of third protocol-scheduled response assessment). No durable benefit (NDB) was defined as progression of disease ≤6 months of beginning therapy. Patients who were still ongoing study therapy at the time of the data lock (Oct. 10, 2014) but who had not yet reached 6 months of follow up were considered “Not reached” (NR). These patients were not included in the analysis of DCB/NDB, but were included in assessments of objective response and progression-free survival. For patients with ongoing response to study therapy, progression free survival was censored at the date of the most recent imaging evaluation. For alive patients, overall survival was censored at the date of last known contact.
# Mann-Whitney test was used to compare mutation burdens and differences in the frequency of nucleotide changes. The Log-Rank and Mantel-Haenszel tests were used to compare Kaplan-Meier survival curves. The proportion of objective responders/non-responders or DCB/NDB were compared using Fisher's Exact Test. The receiver operator characteristic (ROC) curve was generated by plotting the proportion of all DCB patients with mutation burden above any given cut point (sensitivity) against the proportion of the NDB patients that would also exceed the same cut point (1-specificity). The area under the curve and exact 95% confidence intervals are reported. Correlations between nonsynonymous mutation burden and neoantigen burden, neoantigen burden and best overall response, and frequency of neoantigen burden/nonsynonymous mutation and best overall response were calculated using Spearman correlation formula. Statistical analyses were performed using GraphPad Prism v.6 (Graphpad Prism Software, San Diego, Calif.).
# [3] = approximately 2000 patients; cited from earlier work
# [4] = test system: stage IV non-small cell lung cancer (NSCLC) patients; details: 10 mg/kg every 2-3 weeks vs 2 mg/kg every 3 weeks; reference (6); cited from earlier work
# [5] = cited from earlier work
# CD8+ T-cells [6] = assay: MHC multimer screening of neoantigen-specific CD8+ T-cells in serially collected peripheral blood lymphocytes of a pembrolizumab responder; assay type: cell-based, human
# Method: HLA-A restricted candidate neoantigens were synthesized in-house (Netherlands Cancer Institute) and HLA-multimers containing these peptides were produced by micro-scale parallel UV-induced peptide exchange reactions as previously described (26, 58). Briefly, peptide-MHC complexes loaded with UV-sensitive peptide were subjected to 366-nm UV light (CAMAG) for one hour at 4° C. in the presence of candidate neoantigen peptide in a 384-well plate. pMHC multimers were generated using a total of 11 different fluorescent streptavidin (SA) conjugates (Invitrogen). For each pMHC monomer, conjugation was performed with two of these fluorochromes. NaN3 (0.02% w/v) and an excess of D-biotin (26.4 mM, Sigma) were added to block residual binding sites. For T cell staining an combinatorial encoding strategy was employed to be able to analyze for reactivity against up to 47 different peptides in parallel (27). The PBMC samples were thawed, treated with DNAse for 1 h and stained with pMHC multimer panels for 15 min at 37 C. Subsequently, anti-CD8-AF700 (Invitrogen), anti-CD4-FITC (Invitrogen), anti-CD14-FITC (Invitrogen), anti-CD16-FITC (Invitrogen), anti-CD19-FITC (Invitrogen), and LIVE/DEAD Fixable IR Dead Cell Stain Kit (Invitrogen) were added for additional 20 min on ice. Data acquisition was performed on an LSR II flow cytometer (Becton Dickinson) with FACSDiva 6 software. Cutoff values for the definition of positive responses were ≥0.005% of total CD8+ cells and ≥10 events. For immunophenotypical analysis, day 44 PMLs were stained with HERC1 P3278S MHC multimers in two colors (qdot 625 (Invitrogen) and PerCPeFluor710 (ebioscience)) plus anti-CD45RA Ab (Invitrogen), anti-CCR7 Ab (BD Bioscience), anti-HLA-DR Ab (BD Bioscience), and anti-LAG-3 Ab (R&D systems). The immunophenotype of HERC1 P3278S reactive and bulk CD8+ T-cells were analyzed. Data were acquired using an LSR II flow cytometer (Becton Dickson) with FASCDiva 6 software.
# [7] = discovery cohort, high nonsynonymous burden
# [8] = discovery cohort, low nonsynonymous burden
# [9] = validation cohort, nonsynonymous mutation burden above the median
# [10] = validation cohort, nonsynonymous mutation burden below the median
# [11] = 411 patients, Trial 1, all grades
substance,measurement,setting,value
ASNAPSAAK (listed as Homo sapiens) [synthesized 9 amino acid wild type HERC1 peptide],"polyfunctional CD8+ T-cells (IFNγ, CD107a, MIP113, TNFα production) in response to peptide",CD8+ T-cells [1],not
pembrolizumab,median PFS,[2]; TH tumors,not reached
same,rate of DCB,[2]; TH tumors,77%
same,median PFS,[2]; TL tumors,3.5
same,rate of DCB,[2]; TL tumors,22%
same,ORR,"[2]; transversion-high (TH, smoking signature) tumors",56%
same,ORR,[2]; transversion-low (TL) tumors,17%
same,confirmed objective response rate (ORR),[2]; [7],63%
same,median PFS,[2]; [7],14.5 months
same,rate of durable clinical benefit (DCB),"[2]; discovery cohort, high nonsynonymous burden (above median of cohort)",Seventy-three
same,rate of durable clinical benefit (DCB),"[2]; discovery cohort, low mutation burden",13%
same,confirmed objective response rate (ORR),[2]; [8],0%
same,median PFS,[2]; [8],3.7 months
same,rate of DCB,[2]; high nonsynonymous mutation burden (>200) and some PD-L1 expression (weak/strong),91%
same,rate of DCB,[2]; low mutation burden and some degree of PD-L1 expression,10%
same,decrease in tumor burden,[2]; one patient (Study ID #9) with exceptional response,95%
same,duration of partial response,[2]; one tumor with very low burden (56 nonsynonymous mutations),8 months
same,median PFS,"[2]; overall set, high neoantigen burden",14.5 months
same,median PFS,"[2]; overall set, low neoantigen burden",3.5 months
same,rate of DCB,[2]; self-reported ever smokers,48%
same,rate of DCB,[2]; self-reported never-smokers,33%
same,tumors with no durable benefit (NDB),"[2]; tumors with ≥178 nonsynonymous mutations, both cohorts",5 of 18
same,median PFS,[2]; [9],not reached
same,rate of DCB,[2]; [9],83%
same,median PFS,[2]; [10],3.4 months
same,rate of DCB,[2]; [10],22%
same,rate of durable benefit,"[2]; validation cohort, tumors harboring ≥178 mutations",75%
same,rate of durable benefit,"[2]; validation cohort, tumors with <178 mutations",14%
same,rate of DCB,"[2]; weak PD-L1 expression, high nonsynonymous mutation burden",75%
same,rate of DCB,"[2]; weak PD-L1 expression, low mutation burden",11%
same,"additional immune-mediated adverse reactions, patients: myasthenic syndrome, optic neuritis, rhabdomyolysis",[3],less than 1%
same,overall response rate and progression-free survival across dose and schedules,[4],similar
same,"Pneumonitis, patients","[5]; 411 melanoma patients, Trial 1, all grades",2.9%
same,"Colitis (including microscopic colitis), patients",[5]; [11],1%
same,"Hepatitis (including autoimmune hepatitis), patients",[5]; [11],0.5%
same,"Hyperthyroidism, patients",[5]; [11],1.2%
same,"Hypophysitis, patients",[5]; [11],0.5%
same,"Hypothyroidism, patients",[5]; [11],8.3%
same,"Colitis Grade 2, patients",[5]; Trial 1,0.2%
same,"Colitis Grade 3, patients",[5]; Trial 1,0.5%
same,"Hepatitis Grade 4, patients",[5]; Trial 1,0.2%
same,"Hyperthyroidism Grade 2, patients",[5]; Trial 1,0.5%
same,"Hyperthyroidism Grade 3, patients",[5]; Trial 1,0.2%
same,"Hypophysitis Grade 2, patients",[5]; Trial 1,0.2%
same,"Hypophysitis Grade 4, patients",[5]; Trial 1,0.2%
same,"Hypothyroidism Grade 3, patients",[5]; Trial 1,0.2%
same,"Pneumonitis Grade 2, patients",[5]; Trial 1,1.9%
same,"Pneumonitis Grade 3, patients",[5]; Trial 1,0.2%
same,"discontinuation of KEYTRUDA due to pneumonitis, patients",[5]; Trial 1,0.7%
same,median duration of colitis,[5]; Trial 1,2.6 months
same,median duration of hyperthyroidism,[5]; Trial 1,2.8 months
same,median duration of pneumonitis,[5]; Trial 1,4.9 months
same,median time to development of pneumonitis,[5]; Trial 1,5 months
same,"other immune-mediated adverse reactions, patients: exfoliative dermatitis, uveitis, arthritis, myositis, pancreatitis, hemolytic anemia, partial seizures, adrenal insufficiency",[5]; Trial 1,less than 1%
same,patients who received corticosteroids or discontinued KEYTRUDA for management of hypothyroidism,[5]; Trial 1,No patient
same,"permanent discontinuation of KEYTRUDA due to colitis, patients",[5]; Trial 1,0.2%
same,"permanent discontinuation of KEYTRUDA due to hyperthyroidism, patients",[5]; Trial 1,0.2%
same,"Nephritis, patients",[5]; all grades,0.7%
same,duration of hepatitis,[5]; case of Grade 4 hepatitis,1.1 months
same,"Grade 2 autoimmune nephritis, patients","[5]; human, in vivo",0.2%
same,duration of autoimmune nephritis,"[5]; human, in vivo",3.2 months
same,"most common adverse reactions, patients: fatigue, cough, nausea, pruritus, rash, decreased appetite, constipation, arthralgia, diarrhea","[5]; human, in vivo",> 20%
same,patients who fully recovered renal function,"[5]; nephritis, with high-dose corticosteroids",All three
same,"interstitial nephritis with renal failure, patients",[5]; one Grade 3 and one Grade 4,0.5%
same,pneumonitis completely resolved,[5]; patients with Grade 2-3 pneumonitis,seven of the nine
same,complete resolution of colitis,[5]; patients with colitis,All four
same,complete resolution of hepatitis,[5]; patients with hepatitis,Both
same,complete resolution of hyperthyroidism,[5]; patients with hyperthyroidism,All five
ASNASSAAK (listed as Homo sapiens) [synthesized 9 amino acid mutant HERC1 P>S neoantigen peptide],HERC1 P3278S neoantigen-specific CD8+ T-cell response (MHC multimer+),CD8+ T-cells [6]; Day 44,0.044 % of Cd8+ T-cells
same,HERC1 P3278S neoantigen-specific CD8+ T-cell response (MHC multimer+),"CD8+ T-cells [6]; at start of therapy, level of detection",< 0.005%
same,HERC1 P3278S neoantigen-specific CD8+ T-cell response (MHC multimer+),CD8+ T-cells [6]; subsequent months as tumor regression plateaued,just above background
same,HERC1 P3278S neoantigen-specific CD8+ T-cell response (MHC multimer+),CD8+ T-cells [6]; within 3 weeks post therapy initiation,0.040 % of CD8+ T-cells
same,"polyfunctional CD8+ T-cells (IFNγ, CD107a, MIP113, TNFα production) in response to peptide",CD8+ T-cells [1],detected

# Source: patent US10993998B2, “Determinants of cancer response to immunotherapy by PD-1 blockade” (Memorial Sloan Kettering Cancer Center, priority 2014, dated 2021)
